Measured values published in patent US20200247855A1, “THERAPY AND DIAGNOSTICS” (OXFORD UNIVERSITY INNOVATION LIMITED, priority 2017, published 2020).

Assays:
Test in all cases: Yeast surface display (YSD) FACS binding
CXCL10_HUMAN = biological target: T1, CXCL10_HUMAN (Homo sapiens, UniProt P02778); conditions: for Binding to CXCL10_HUMAN, YSD: yeast surface display; for Chemokines bound in yeast surface display and % cells over threshold fluorescence: CXCL10_HUMAN: FACS re-test, mean percent shift where several clones
T1 sequence (P02778 22-98): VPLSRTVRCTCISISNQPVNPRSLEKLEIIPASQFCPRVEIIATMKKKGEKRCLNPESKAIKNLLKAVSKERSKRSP
Experimental: (§1) Table 1. Tick CKBPs described in PCT/GB2017/050563 and [17]. Tick peptide sequences isolated in yeast surface display fluorescent-activated cell sorting (FACS) screens using a labelled chemokine. Identity with Evasin-1, 4 or 3 was calculated using BLAST. Abbreviations: IXORI—Ixodes ricinus, RHISA—Rhipicephalus sanguineus, AMBMA—Amblyomma maculatum, AMBPA—Amblyomma parvum, AMBTR—Amblyomma triste, AMBAM—Amblyomma americanum, AMBCA—Amblyomma cajennense, RHIPU—Rhipicephalus pulchellus. Table 2A-C. Binding characteristics of tick CKBPs previously disclosed (PCT/GB2017/050563 and [17]). All members of the human chemokine family[164] are listed in column 1. Binding to human chemokines was determined for 14 tick CKBPs using biolayer interferometry (BLI) with calculated Kd shown as Molar (Moles/Litre). Binding data for 17 other novel tick CKBPs was assayed using yeast surface display[17,166],with positive binding results shown as “YES”. For biolayer interferometry, His-tagged purified tick CKBP was bound to a Ni-NINTA sensor on an OctetRed® 384 system, and then binding to each chemokine listed (with the exception of CCL25, CCL26, CXCL16, CXCL17, CXCL4L1, XCL2) was assayed in a cross-binding screen at a chemokine concentration of 300 nM as described. For those chemokines showing binding to a tick CKBP in the cross-binding screen, binding assays were repeated using different doses of chemokine. Association, equilibrium and dissociation data were analysed using Octet software to create corresponding fitted curves, and used to calculate Kd. For yeast surface display, (YSD) background fluorescence was controlled for by using either an empty vector or by omitting the chemokine (i.e. using streptavidin-Alexa647 alone). An arbitrary threshold of >3 fold over background mean fluorescence intensity was chosen to describe confirmed re-tests. Where binding was detected data are indicated as “YES”. […] For yeast surface display data, empty cells represent chemokines that were not tested. Binding data published in relation to previously described tick CKBPs (Evasins-1, 4 and 3) is also shown for comparison in each of FIGS. 2A-C, with the relevant data obtained from publications: [20-22,32]. Table 3: Neutralisation of human chemokines by tick CKBPs previously disclosed (PCT/GB2017/050563 and [17]). Neutralising activity was determined using a quantitative THP1 cell migration assay in a 96-well Boyden chamber with chemokine in the bottom chamber as described. Cells migrating through to the bottom chamber at 4 hours were counted using flow cytometry in a 96 well plate format. IC50 for neutralisation was determined at the chemokine EC80 dose as determined using a range of tick CKBP concentrations. Data was analysed using GraphPad Prism to determine IC50, which is shown as Molar (Moles/Litre). Empty cells represent experiments not done. Table 4—Other previously described tick CKBPs. Tick CKBPs that were also described in PCT/GB2017/050563 and Singh et al. are indicated in “Notes”. Table 5.—Novel tick CKBPs of the invention. Table 6. […] The peptide sequence prefix indicates the identity, and suffix indicate the tick species as follows: AMBCA, Amblyomma cajennense and IXORI, Ixodes ricinus. […] Certain tick peptides e.g. P1074_IXORI were recovered from screens performed with more than one chemokine. Individual yeast clones recovered from the library were re-tested using a FACS (fluorescence activated cell sorting), experiment. The binding of the peptide to the chemokine was assayed by measuring the percent (%), of yeast cells expressing the given peptide that exceeded a background threshold set by measuring the fluorescence of the yeast library pool treated with streptavidin-[…] alone. When more than one independent yeast clone was isolated for a given peptide-chemokine combination, the mean percent shift was calculated and reported in column 3. […]

CXCL12_HUMAN = CXCL12_HUMAN (Homo sapiens, UniProt P48061); conditions: FACS re-test; mean percent shift where several clones
Experimental: as §1

CXCL1_HUMAN = biological target: T2, CXCL1_HUMAN (Homo sapiens, UniProt P09341); set-up: label (chemical); conditions: FACS re-test; mean percent shift where several clones
T2 sequence (P09341 35-107): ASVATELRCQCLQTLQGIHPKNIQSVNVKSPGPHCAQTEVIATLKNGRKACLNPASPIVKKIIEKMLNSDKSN
Experimental: as §1

CXCL9_HUMAN = biological target: T3, CXCL9_HUMAN (Homo sapiens, UniProt Q07325); conditions: FACS re-test; mean percent shift where several clones
T3 sequence (Q07325 23-125): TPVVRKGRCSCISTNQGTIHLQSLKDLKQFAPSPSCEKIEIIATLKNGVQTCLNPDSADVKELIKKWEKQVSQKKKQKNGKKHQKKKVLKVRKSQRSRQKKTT
Experimental: as §1

CXCL8_HUMAN = biological target: T4, CXCL8_HUMAN (Homo sapiens, UniProt P10145); set-up: label (chemical); conditions: FACS re-test; mean percent shift where several clones
T4 sequence (P10145 21-99): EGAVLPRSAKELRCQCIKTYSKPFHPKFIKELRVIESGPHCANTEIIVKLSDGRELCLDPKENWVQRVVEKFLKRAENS
Experimental: as §1

Sequence of CXCL12_HUMAN (P48061 22-93): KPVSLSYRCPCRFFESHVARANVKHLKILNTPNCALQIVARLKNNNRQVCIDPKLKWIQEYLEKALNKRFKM

B1: P1283_IXORI: tick CKBP, Ixodes ricinus (protein, listed as Ixodes ricinus)
chain: KEPEDTTLPPGALVDSPDSDNCSSPHLPYFDETTNMWMGFLAVNCTKKCPVGKHVTVVDGNKCIGTWSFLDELTITVLVGSCKDGFCETDGSSECRNITLAEEDSQEEEGAAAEEEDEEDEEDEEEEEAEEEREDDHDDA
Binding to CXCL10_HUMAN, YSD (CXCL10_HUMAN): YES (An arbitrary threshold of >3 fold over background mean fluorescence intensity was chosen to describe confirmed re-tests. Where binding was detected data are indicated as “YES”)

B2: P1096_IXORI: novel CXC-binding tick CKBP, Ixodes ricinus (protein, listed as Ixodes ricinus)
chain: HTTVTGSVEGKPNNPNEDIEVSYCRMNCTVENGVSSACSGDCVCVHRDNEPNGICVEITYFGDFGDPSQDPSIDEAAPRESVSKRRSNGES
Chemokines bound in yeast surface display and % cells over threshold fluorescence: CXCL10_HUMAN (CXCL10_HUMAN): CXCL10_HUMAN 50%

B3: P1224_IXORI: tick CKBP, Ixodes ricinus (protein, listed as Ixodes ricinus)
chain: SDLCKMEAESSPFKLPQSSLLDAPDEEGCKYQLLFVEAEGPLVVNCTKDCPNGKIRTVVEGELCIAMVKTSSSGEATGLVGSCKRGSCVKKDDPCRTFTLSEEGDDDEEDEEEEEDEEEDEEEDEEEEEEDEEEED
Binding to CXCL10_HUMAN, YSD (CXCL10_HUMAN): YES (An arbitrary threshold of >3 fold over background mean fluorescence intensity was chosen to describe confirmed re-tests. Where binding was detected data are indicated as “YES”)

B4: P1101_IXORI: novel CXC-binding tick CKBP, Ixodes ricinus (protein, listed as Ixodes ricinus)
chain: HTTVAGSDEDIEVSYCGMNCTVESGKSSKCSPDCVCVHEGNERDGICISITYLGDLGNPLEDPSIDLATPLAPVFQSSK
Chemokines bound in yeast surface display and % cells over threshold fluorescence: CXCL10_HUMAN (CXCL10_HUMAN): CXCL10_HUMAN 75%

B5: P1134_IXORI: novel CXC-binding tick CKBP, Ixodes ricinus (protein, listed as Ixodes ricinus)
chain: NEEVFTVEYCGMNCTQKSDGTWTECSGKNKDCRCYHESDAREGLCLSTEYTDFSQFETPSNSDLEAATPRPRKTLYPVRNPHGPKTRGLGYDKRILRDRVKFLI
Chemokines bound in yeast surface display and % cells over threshold fluorescence: CXCL10_HUMAN (CXCL10_HUMAN): CXCL10_HUMAN 66%

B6: P1095_IXORI: novel CXC-binding tick CKBP, Ixodes ricinus (protein, listed as Ixodes ricinus)
chain: HSPVAGSEVQKLTSDPNDDIDVSYCGMNCTVVNGKSDECSENCKCLHEGDDPKGICVAITYFGDWGDPNDDPKINEATPQTQIFEKKRK
Chemokines bound in yeast surface display and % cells over threshold fluorescence: CXCL12_HUMAN (CXCL12_HUMAN): CXCL12_HUMAN 47%

B7: P1077_IXORI: novel CXC-binding tick CKBP, Ixodes ricinus (protein, listed as Ixodes ricinus)
chain: GSKQLIGPQSSTNSIKAEFCDTNCTAGTNGIWNGCSGDCFCTHVGNSTEGRCMKITGFDEYPTSEAEE
Chemokines bound in yeast surface display and % cells over threshold fluorescence: CXCL1_HUMAN (CXCL1_HUMAN): CXCL1_HUMAN 50%

B8: P1100_IXORI: novel CXC-binding tick CKBP, Ixodes ricinus (protein, listed as Ixodes ricinus)
chain: GSKGSSASQSSDNSVVAKFCDTNCTINEGGKWTECKGGCFCVHVGNETVGRCMKLDGDYDYPSPKPEE
Chemokines bound in yeast surface display and % cells over threshold fluorescence: CXCL9_HUMAN (CXCL9_HUMAN): CXCL9_HUMAN 55%

B9: P1132_IXORI: novel CXC-binding tick CKBP, Ixodes ricinus (protein, listed as Ixodes ricinus)
chain: LSDEDELFSVEYCGTNCTKQDTGSWTTCSGNCTCYHEDGKKVGLCLSTEYTDFTKFPKPTSEEIANARPLPKREKTLN
Chemokines bound in yeast surface display and % cells over threshold fluorescence: CXCL1_HUMAN (CXCL1_HUMAN): CXCL1_HUMAN 68%

B10: P1229_IXORI: novel CXC-binding tick CKBP, Ixodes ricinus (protein, listed as Ixodes ricinus)
chain: DDEFFTVDYCGMNCTLQQDGSWTPCTQKNAECKCYHESGSSVGLCLSTAYTDFNQFGDPNNSDLDAATPRHPDASSR
Chemokines bound in yeast surface display and % cells over threshold fluorescence: CXCL1_HUMAN (CXCL1_HUMAN): CXCL1_HUMAN 66%

B11: P1174_IXORI: novel CXC-binding tick CKBP, Ixodes ricinus (protein, listed as Ixodes ricinus)
chain: LNNENELFSVEYCGANCTQQDNGSWTKCKGNCTCYHEDGKRYGLCLSTEYTDFTQFPKPTSEEIADASPRPKETNSH
Chemokines bound in yeast surface display and % cells over threshold fluorescence: CXCL8_HUMAN (CXCL8_HUMAN): CXCL8_HUMAN 29%

B12: P1126_AMBCA: novel CXC-binding tick CKBP, Amblyomma cajennense (protein)
chain: KPQILQRTDKSTDSEWDPQTCPETCIPSKNITCSDGCVCVKLGEEEEGTCFNMTGVDWLGSPSDD
modifications: Amblyomma cajennense
Chemokines bound in yeast surface display and % cells over threshold fluorescence: CXCL9_HUMAN (CXCL9_HUMAN): CXCL9_HUMAN 56%

B13: P1166_IXORI: novel CXC-binding tick CKBP, Ixodes ricinus (protein, listed as Ixodes ricinus)
chain: GPETKEDKKSDVYELFTVEYCGTNCTLLTNGRWTACTGKKGTCRCYHESGEKVGLCLSTEYTDFSEYPNPKSSEIDAAAPLPRETH
Chemokines bound in yeast surface display and % cells over threshold fluorescence: CXCL1_HUMAN (CXCL1_HUMAN): CXCL1_HUMAN 63%

B14: P1104_IXORI: novel CXC-binding tick CKBP, Ixodes ricinus (protein, listed as Ixodes ricinus)
chain: ESKEASASQGPGKSFKVEFCETNCTENNGVWSGCTGDCICVSVGDSKEGRCMDLGDKVIDTPVAQG
Chemokines bound in yeast surface display and % cells over threshold fluorescence: CXCL1_HUMAN (CXCL1_HUMAN): CXCL1_HUMAN 65%

B15: P1162_IXORI: novel CXC-binding tick CKBP, Ixodes ricinus (protein, listed as Ixodes ricinus)
chain: LNDEELFTVDYCGTNCTQQPNGSWTTCPGNCSCYHEDGKTDGFCLSTEYTDFTQFPNLTSEEMDAATPRPE
Chemokines bound in yeast surface display and % cells over threshold fluorescence: CXCL1_HUMAN (CXCL1_HUMAN): CXCL1_HUMAN 72%

B16: P1219_IXORI: tick CKBP, Ixodes ricinus (protein, listed as Ixodes ricinus)
chain: ASLAKETEDTTLPARALVDSPDSDNCSSPQLPYFDELTYMPLGFLAVNCTKTCPVGKNGTVVNGNKCIVTWSILDVSTITVLVGSCKNGYCISDGSSECRNITLAGEDSQEEEEEAEEDEEEDDGDEEEDEEEDEEENDDD
Binding to CXCL10_HUMAN, YSD (CXCL10_HUMAN): YES (An arbitrary threshold of >3 fold over background mean fluorescence intensity was chosen to describe confirmed re-tests. Where binding was detected data are indicated as “YES”)

B17: P458_IXORI: novel CXC-binding tick CKBP, Ixodes ricinus (protein, listed as Ixodes ricinus)
chain: GSKQPGAAGSSSDSVEAVFCPTNCTKGTNGAWSGCSDDCICVHVGENTEGSCMKFSGDYDYPTPEA
Chemokines bound in yeast surface display and % cells over threshold fluorescence: CXCL9_HUMAN (CXCL9_HUMAN): CXCL9_HUMAN 37%
